The source of these data is publication PMC9482650, “Quantitative fragmentomics allow affinity mapping of interactomes” (Nature Communications, 2022).

Among the targets are MAGI2_3, Q86UL8; HTRA1, Q92743; NHERF4_4, Q86UT5; DLG1_2, Q12959; PDZRN4_1, Q6ZMN7; LIMK2, P53671; MAGI2_2, Q86UL8.
Assay in all cases: holdup assay
Holding throughout (parameters): key: below the threshold = too weak to quantify, mostly under pKd 3.1 to 4
Holding throughout (conditions): plain residues with an end cap or a label only (N-terminal biotin on a linker: ado-ado)

The next assay addresses T1, FRMPD1, Q5SYB0.
T1 sequence (Q5SYB0 52-145, limits assumed, looked up): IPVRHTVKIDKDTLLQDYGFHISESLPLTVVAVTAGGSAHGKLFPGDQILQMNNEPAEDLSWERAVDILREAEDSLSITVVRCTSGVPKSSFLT

The next assay has as its target T2, SHANK1, Q9Y566.
T2 sequence (Q9Y566 658-767, limits assumed, looked up): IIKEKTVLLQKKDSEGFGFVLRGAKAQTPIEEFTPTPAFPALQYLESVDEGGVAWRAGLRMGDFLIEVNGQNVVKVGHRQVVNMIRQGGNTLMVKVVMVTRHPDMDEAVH

Another assay has as its target T3, TIAM2, Q8IVF5.
T3 sequence (Q8IVF5 885-986, limits assumed, looked up): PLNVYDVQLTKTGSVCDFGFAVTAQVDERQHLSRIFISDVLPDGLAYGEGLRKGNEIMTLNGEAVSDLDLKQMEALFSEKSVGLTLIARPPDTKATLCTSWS

The next assay addresses T4, DFNB31_1, Q9P202.
T4 sequence (Q9P202 135-233, limits assumed, looked up): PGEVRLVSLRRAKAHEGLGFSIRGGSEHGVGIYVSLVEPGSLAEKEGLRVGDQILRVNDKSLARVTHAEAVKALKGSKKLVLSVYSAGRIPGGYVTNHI

Another assay deals with T5, RAPGEF6, Q8TEU7.
T5 sequence (Q8TEU7 525-625, limits assumed, looked up): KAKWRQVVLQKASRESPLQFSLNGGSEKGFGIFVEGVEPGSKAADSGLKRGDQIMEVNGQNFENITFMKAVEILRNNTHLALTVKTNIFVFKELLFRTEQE

Another assay addresses T6, GRIP1_5, Q9Y3R0.
T6 sequence (Q9Y3R0 568-668, limits assumed, looked up): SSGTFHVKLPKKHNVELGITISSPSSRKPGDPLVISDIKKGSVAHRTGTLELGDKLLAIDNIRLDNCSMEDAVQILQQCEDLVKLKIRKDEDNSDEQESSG

The target in another assay is T7, CARD11, Q9BXL7.
T7 sequence (Q9BXL7 662-765, limits assumed, looked up): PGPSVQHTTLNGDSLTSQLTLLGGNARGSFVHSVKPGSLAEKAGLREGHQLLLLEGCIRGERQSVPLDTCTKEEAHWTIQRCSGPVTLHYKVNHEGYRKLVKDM

For the next assay, the target named is T8, HTRA4, P83105.
T8 sequence (P83105 378-476, limits assumed, looked up): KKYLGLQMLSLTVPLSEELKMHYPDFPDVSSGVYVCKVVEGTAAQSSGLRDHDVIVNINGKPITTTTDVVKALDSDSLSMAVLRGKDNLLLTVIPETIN

A further assay concerns the target T9, TX1BP3, O14907.
T9 sequence (O14907 10-122, limits assumed, looked up): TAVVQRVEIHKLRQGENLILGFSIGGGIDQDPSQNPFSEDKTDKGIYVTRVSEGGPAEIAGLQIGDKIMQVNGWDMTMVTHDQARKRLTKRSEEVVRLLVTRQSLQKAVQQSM

Another assay concerns the target T10, APBA1_1, Q02410.
T10 sequence (Q02410 651-752, limits assumed, looked up): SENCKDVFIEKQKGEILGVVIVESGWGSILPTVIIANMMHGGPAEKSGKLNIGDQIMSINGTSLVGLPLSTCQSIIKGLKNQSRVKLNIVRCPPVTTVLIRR

The target of another assay is T11, DVL3, Q92997.
T11 sequence (Q92997 244-331, limits assumed, looked up): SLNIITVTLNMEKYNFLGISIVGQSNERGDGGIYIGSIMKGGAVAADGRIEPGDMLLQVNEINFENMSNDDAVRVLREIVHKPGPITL

Another assay deals with T12, TJP3_3, O95049.
T12 sequence (O95049 375-456, limits assumed, looked up): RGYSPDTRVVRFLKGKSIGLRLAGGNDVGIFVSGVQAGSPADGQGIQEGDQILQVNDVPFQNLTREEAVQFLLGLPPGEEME

A further assay concerns the target T13, LIN7C, Q9NUP9.
T13 sequence (Q9NUP9 88-185, limits assumed, looked up): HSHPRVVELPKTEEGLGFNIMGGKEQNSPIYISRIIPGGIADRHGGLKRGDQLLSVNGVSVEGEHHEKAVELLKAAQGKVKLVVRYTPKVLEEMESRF

In the next assay the target is T14, DFNB31_3, Q9P202.
T14 sequence (Q9P202 811-907, limits assumed, looked up): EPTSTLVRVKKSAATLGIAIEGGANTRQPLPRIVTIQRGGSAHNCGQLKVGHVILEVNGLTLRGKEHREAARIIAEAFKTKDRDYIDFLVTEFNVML

Another assay addresses T15, DFNB31_2, Q9P202.
T15 sequence (Q9P202 274-371, limits assumed, looked up): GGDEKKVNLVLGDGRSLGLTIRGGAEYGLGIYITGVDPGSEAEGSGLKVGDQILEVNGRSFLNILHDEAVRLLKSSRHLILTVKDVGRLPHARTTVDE

A word on the pKd: it is −log10 of the Kd, conventionally taken in molar units.

Sequence of NHERF4_4, Q86UT5 (Q86UT5 464-550): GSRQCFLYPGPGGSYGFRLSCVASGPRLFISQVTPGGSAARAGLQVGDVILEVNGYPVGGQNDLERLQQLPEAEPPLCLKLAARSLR
Sequence of MAGI2_3, Q86UL8 (Q86UL8 600-682): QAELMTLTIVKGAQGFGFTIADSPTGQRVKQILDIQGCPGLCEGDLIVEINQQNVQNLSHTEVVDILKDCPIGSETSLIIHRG
Sequence of HTRA1, Q92743 (Q92743 360-477): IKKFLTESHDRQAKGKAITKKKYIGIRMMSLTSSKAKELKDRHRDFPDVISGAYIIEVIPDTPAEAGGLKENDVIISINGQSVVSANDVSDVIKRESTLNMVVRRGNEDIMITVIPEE
Sequence of DLG1_2, Q12959 (Q12959 314-412): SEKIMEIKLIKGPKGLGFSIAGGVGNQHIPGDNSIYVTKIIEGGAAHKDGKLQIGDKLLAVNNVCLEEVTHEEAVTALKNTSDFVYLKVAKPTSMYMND
Sequence of LIMK2, P53671 (P53671 143-248): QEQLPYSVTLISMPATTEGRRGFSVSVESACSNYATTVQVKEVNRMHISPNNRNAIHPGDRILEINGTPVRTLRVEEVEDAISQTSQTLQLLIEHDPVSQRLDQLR
Sequence of MAGI2_2, Q86UL8 (Q86UL8 410-522): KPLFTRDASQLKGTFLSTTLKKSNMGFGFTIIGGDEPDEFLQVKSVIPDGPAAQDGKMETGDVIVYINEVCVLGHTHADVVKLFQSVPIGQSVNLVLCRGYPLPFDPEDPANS
Sequence of PDZRN4_1, Q6ZMN7 (Q6ZMN7 213-318): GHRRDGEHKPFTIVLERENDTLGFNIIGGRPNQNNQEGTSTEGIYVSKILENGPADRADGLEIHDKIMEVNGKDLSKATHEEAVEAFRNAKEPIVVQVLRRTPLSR

B1: GRIA2, P42262 (peptide)
chain: NVYGIESVKI
With B1, the pKd entry with MAGI2_3, Q86UL8 is “below the threshold”; in the assay with FRMPD1, Q5SYB0, “below the threshold”; in the assay with SHANK1, Q9Y566, 3.9; in the assay with TIAM2, Q8IVF5, 4.21; in the assay with DFNB31_1, Q9P202, “below the threshold”; with HTRA1, Q92743, 4.25. Besides, the pKd result with RAPGEF6, Q8TEU7 is “below the threshold”; in the assay with NHERF4_4, Q86UT5, “below the threshold”; with GRIP1_5, Q9Y3R0, 3.5; with CARD11, Q9BXL7, “below the threshold”; with DLG1_2, Q12959 it was 3.96; with HTRA4, P83105, 3.74. Also, the pKd result in the assay with TX1BP3, O14907 is “below the threshold”; in the assay with PDZRN4_1, Q6ZMN7, “below the threshold”; with APBA1_1, Q02410, 3.52; in the assay with DVL3, Q92997, “below the threshold”; in the assay with TJP3_3, O95049, “below the threshold”; with LIN7C, Q9NUP9 it was “below the threshold”. Moreover, the pKd entry with LIMK2, P53671 is “below the threshold”; with MAGI2_2, Q86UL8, “below the threshold”; in the assay with DFNB31_3, Q9P202 it was “below the threshold”; in the assay with DFNB31_2, Q9P202, “below the threshold”.

B2: SLC1A1, P43005 (peptide)
chain: TISFTQTSQF
As to B2, the pKd result was “below the threshold” with MAGI2_3, Q86UL8; “below the threshold” in the assay with FRMPD1, Q5SYB0; 4.61 with SHANK1, Q9Y566; 4.14 in the assay with TIAM2, Q8IVF5; “below the threshold” in the assay with DFNB31_1, Q9P202; “below the threshold” in the assay with HTRA1, Q92743. Moreover, the pKd entry with RAPGEF6, Q8TEU7 was “below the threshold”; with NHERF4_4, Q86UT5 it was “below the threshold”; with GRIP1_5, Q9Y3R0, “below the threshold”; with CARD11, Q9BXL7, “below the threshold”; with DLG1_2, Q12959, 3.83; in the assay with HTRA4, P83105, “below the threshold”. In addition, the pKd entry with TX1BP3, O14907 is recorded as “below the threshold”; with PDZRN4_1, Q6ZMN7, “below the threshold”; with APBA1_1, Q02410, “below the threshold”; in the assay with DVL3, Q92997, “below the threshold”; in the assay with TJP3_3, O95049, “below the threshold”; with LIN7C, Q9NUP9, “below the threshold”. For the same molecule, the negative-log Kd (pKd) entry in the assay with LIMK2, P53671 is “below the threshold”; with MAGI2_2, Q86UL8 it was “below the threshold”; with DFNB31_3, Q9P202 it was 3.99; with DFNB31_2, Q9P202, “below the threshold”.

B3: KIRREL2, Q6UWL6 (peptide)
chain: PSHPRLQTHV
Take B3: the pKd in the assay with MAGI2_3, Q86UL8 was 3.67; with FRMPD1, Q5SYB0, “below the threshold”; with SHANK1, Q9Y566 it was 3.84; in the assay with TIAM2, Q8IVF5 it was 3.73; in the assay with DFNB31_1, Q9P202 it was “below the threshold”; in the assay with HTRA1, Q92743, “below the threshold”. The negative logarithm of the Kd (pKd) result with RAPGEF6, Q8TEU7 was “below the threshold”; with NHERF4_4, Q86UT5, “below the threshold”; with GRIP1_5, Q9Y3R0, “below the threshold”; with CARD11, Q9BXL7 it was “below the threshold”; with DLG1_2, Q12959, 4.65; in the assay with HTRA4, P83105 it was 3.6. The negative logarithm of the Kd (pKd) was 4.64 with TX1BP3, O14907; “below the threshold” with PDZRN4_1, Q6ZMN7; “below the threshold” with APBA1_1, Q02410; “below the threshold” with DVL3, Q92997; “below the threshold” in the assay with TJP3_3, O95049; 4 with LIN7C, Q9NUP9. The pKd result is “below the threshold” with LIMK2, P53671; 4.82 with MAGI2_2, Q86UL8; 4 in the assay with DFNB31_3, Q9P202; “below the threshold” with DFNB31_2, Q9P202.

B4: FZD10, Q9ULW2 (peptide)
chain: EIPAQSPTCV
With B4, the pKd result in the assay with MAGI2_3, Q86UL8 is “below the threshold”; in the assay with FRMPD1, Q5SYB0, 3.56; in the assay with SHANK1, Q9Y566 it was 3.62; with TIAM2, Q8IVF5, 3.7; with DFNB31_1, Q9P202 it was 3.67; in the assay with HTRA1, Q92743, 4.57. For the same molecule, the negative-log Kd (pKd) entry with RAPGEF6, Q8TEU7 is “below the threshold”; with NHERF4_4, Q86UT5 it was “below the threshold”; with GRIP1_5, Q9Y3R0, “below the threshold”; in the assay with CARD11, Q9BXL7, 3.56; with DLG1_2, Q12959, 3.86; with HTRA4, P83105, 4.29. Further, the negative logarithm of the Kd (pKd) result in the assay with TX1BP3, O14907 is “below the threshold”; in the assay with PDZRN4_1, Q6ZMN7 it was 3.63; with APBA1_1, Q02410, “below the threshold”; with DVL3, Q92997 it was 3.6; with TJP3_3, O95049, 3.78; with LIN7C, Q9NUP9, “below the threshold”. The negative logarithm of the Kd (pKd) result was “below the threshold” with LIMK2, P53671; 4.17 in the assay with MAGI2_2, Q86UL8; “below the threshold” with DFNB31_3, Q9P202; “below the threshold” in the assay with DFNB31_2, Q9P202.

B5: CIB2, O75838 (peptide)
chain: DFLSTFHIRI
On to B5, for which the pKd entry was “below the threshold” with MAGI2_3, Q86UL8; “below the threshold” with FRMPD1, Q5SYB0; “below the threshold” in the assay with SHANK1, Q9Y566; 4.59 with TIAM2, Q8IVF5; 3.55 with DFNB31_1, Q9P202; 4.15 with HTRA1, Q92743. Moreover, the pKd result with RAPGEF6, Q8TEU7 is “below the threshold”; in the assay with NHERF4_4, Q86UT5 it was 4.58; in the assay with GRIP1_5, Q9Y3R0 it was “below the threshold”; in the assay with CARD11, Q9BXL7, “below the threshold”; with DLG1_2, Q12959 it was “below the threshold”; with HTRA4, P83105, 3.91. Also, the pKd result with TX1BP3, O14907 is “below the threshold”; with PDZRN4_1, Q6ZMN7 it was “below the threshold”; with APBA1_1, Q02410, 4.08; with DVL3, Q92997, 3.59; in the assay with TJP3_3, O95049, “below the threshold”; in the assay with LIN7C, Q9NUP9, “below the threshold”. For the same molecule, the pKd result is “below the threshold” with LIMK2, P53671; “below the threshold” with MAGI2_2, Q86UL8; 3.5 with DFNB31_3, Q9P202; “below the threshold” with DFNB31_2, Q9P202.
